# Laboratory results: paper PMC9308819 (Nature Communications, 2022)
# B1: Rep15, full length (natural N101D variant) [human] / Rab3A, purified, nucleotide-loaded [human] (parent complex)
# chain 1: MGQKASQQLALKDSKEVPVVCEVVSEAIVHAAQKLKEYLGFEYPPSKLCPAANTLNEIFLIHFITFCQEKGVDEWLTTTKMTKHQAFLFGADWIWTFWGSDKQIKLQLAVQTLQMSSPPPVESKPCDLSNPESRVEESSWKKSRFDKLEEFCNLIGEDCLGLFIIFGMPGKPKDIRGVVLDSVKSQMVRSHLPGGKAVAQFVLETEDCVFIKELLRNCLSKKDGLREVGKVYISIL
# chain 2: MASATDSRYGQKESSDQNFDYMFKILIIGNSSVGKTSFLFRYADDSFTPAFVSTVGIDFKVKTIYRNDKRIKLQIWDTAGQERYRTITTAYYRGAMGFILMYDITNEESFNAVQDWSTQIKTYSWDNAQVLLVGNKCDMEDERVVSSERGRQLADHLGFEFFEASAKDNINVKQTFERLVDVICEKMSESLDTADPAVTGAKQGPQLSDQQVPPHQDCAC
# Variants of: B1
# Assay: ITC
row,Variant,Kd [nM]
1,chain 1 MGQKASQQLALKDSKEVPVVCEVVSEAIVHAAQKLKEYLGFEYPPSKLCPAANTLNEIFLIHFITFCQEKGVDEWLTTTKMTKHQAFLFGADWIWTFWGSDKQIKLQLAVQTLQMSSPPPVESKPCDLSNPESRAEESSWKKSRFDKLEEFCNLIGEDCLGLFIIFGMPGKPKDIRGVVLDSVKSQMVRSHLPGGKAVAQFVLETEDCVFIKELLRNCLSKKDGLREVGKVYISIL [chain 1 V135A],510

# Variants of: B1
# Assay: ITC
# Remark: another data set of the same source
row,Variant,Kd [nM]
1,chain 1 MGQKASQQLALKDSKEVPVVCEVVSEAIVHAAQKLKEYLGFEYPPSKLCPAANTLNEIFLIHFITFCQEKGVDEWLTTTKMTKAQAFLFGADWIWTFWGSDKQIKLQLAVQTLQMSSPPPVESKPCDLSNPESRVEESSWKKSRFDKLEEFCNLIGEDCLGLFIIFGMPGKPKDIRGVVLDSVKSQMVRSHLPGGKAVAQFVLETEDCVFIKELLRNCLSKKDGLREVGKVYISIL [chain 1 H84A],450
